What was measured:
Assay in all cases: cell_activity
[1] = tested on: Nme2-ABE8e-i1 (Neisseria meningitidis)
[2] = tested on: Nme2-ABE8e-i1 V106W V106W (in TadA8e) (Neisseria meningitidis)
[3] = tested on: Nme2-ABE8e-nt (Neisseria meningitidis)
[4] = A6 editing, mouse liver in vivo, N4CC PAM
[5] = up to, off-target A-to-G, mouse liver

With Rosa26 sgRNA ; Rosa26 target the activity [1, 4] was 49%, the activity [2, 4] was 46% and the activity [3, 4] was 34%.

Rosa26 sgRNA ; Rosa26-OT1 off-target was tested, and the activity [1, 5] was 7%, the activity [2, 5] was 5% and the activity ([3]; off-target A-to-G, mouse liver) was 0.2%.

Source: patent US20240417707
